# Source: PMC5286520 (2017)
# Bridge positions count the residues as written; N and C are the ends. Square brackets hold non-standard residues; d marks the D form. Ends that are not written are not given here.
# T1: V1bR (Homo sapiens, UniProt P47901)
# T1 chain: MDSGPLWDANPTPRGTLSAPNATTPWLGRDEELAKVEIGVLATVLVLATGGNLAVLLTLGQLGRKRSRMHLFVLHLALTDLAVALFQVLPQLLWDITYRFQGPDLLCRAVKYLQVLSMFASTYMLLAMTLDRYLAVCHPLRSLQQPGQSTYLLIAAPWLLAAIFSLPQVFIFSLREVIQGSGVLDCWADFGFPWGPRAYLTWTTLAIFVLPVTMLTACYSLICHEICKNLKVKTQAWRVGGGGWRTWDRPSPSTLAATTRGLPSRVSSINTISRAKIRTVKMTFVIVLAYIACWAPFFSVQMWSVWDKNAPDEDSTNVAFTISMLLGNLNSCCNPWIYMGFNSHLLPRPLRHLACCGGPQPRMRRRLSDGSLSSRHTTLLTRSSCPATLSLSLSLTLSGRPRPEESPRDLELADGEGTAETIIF
# T2: OTR (Homo sapiens, UniProt P30559)
# T2 chain: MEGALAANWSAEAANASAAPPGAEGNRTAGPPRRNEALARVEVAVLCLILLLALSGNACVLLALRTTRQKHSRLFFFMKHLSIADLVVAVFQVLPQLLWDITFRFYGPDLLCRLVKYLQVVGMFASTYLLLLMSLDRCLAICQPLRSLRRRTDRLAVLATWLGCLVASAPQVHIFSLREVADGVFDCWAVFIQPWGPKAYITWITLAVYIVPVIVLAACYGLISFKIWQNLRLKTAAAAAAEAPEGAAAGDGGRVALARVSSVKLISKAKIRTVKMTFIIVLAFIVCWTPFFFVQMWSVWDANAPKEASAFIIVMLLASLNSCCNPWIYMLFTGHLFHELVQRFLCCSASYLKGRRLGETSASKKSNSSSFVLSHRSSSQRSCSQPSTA
# Columns and labels:
# V1aR [1] = molecular target: T3, V1aR (Homo sapiens, UniProt P37288); assay: radioligand displacement
# V1bR = molecular target: T1, V1bR; assay: radioligand displacement
# OTR = molecular target: T2, OTR; assay: radioligand displacement
# V1aR [2] = molecular target: T3, V1aR; assay: Schild analysis (IP1 assay)
# T3 sequence (P37288 whole entry): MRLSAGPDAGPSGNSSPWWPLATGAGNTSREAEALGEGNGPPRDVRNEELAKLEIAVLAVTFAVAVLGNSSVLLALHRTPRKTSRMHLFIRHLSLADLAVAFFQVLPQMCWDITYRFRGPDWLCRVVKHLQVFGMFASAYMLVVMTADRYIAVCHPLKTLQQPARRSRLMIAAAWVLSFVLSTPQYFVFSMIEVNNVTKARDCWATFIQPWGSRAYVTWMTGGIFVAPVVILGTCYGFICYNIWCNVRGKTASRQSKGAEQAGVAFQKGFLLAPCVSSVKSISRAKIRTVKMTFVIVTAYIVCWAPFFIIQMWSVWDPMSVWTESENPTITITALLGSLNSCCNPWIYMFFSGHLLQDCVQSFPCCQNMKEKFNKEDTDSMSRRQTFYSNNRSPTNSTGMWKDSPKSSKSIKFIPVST
binder,measurement,setting,value
CLITNCP[dR]G-NH2 (disulfide 1-6 (inferred)) [[D-Arg8]-inotocin],Ki,V1aR [1],0.0013 µM
same,Ki,V1bR,> 100 µM
same,Ki,OTR,> 4 µM
same,Ki,V1aR [2],~0.016 µM
